Laboratory results published in patent publication US20220213181A1 (Novartis, published 2022).

Key:
[1] = biological target: T1, Mouse ANGPTL4(26-410)-FLAG-His6-Avi (mouse, UniProt Q9Z1P8 24-410, biotin on the C-terminal Avi tag (BirA) where the protein is immobilised); assay: Octet (ForteBio) kinetics, biotinylated antigen on streptavidin sensor, IgG in solution; Octet kinetics, mouse ANGPTL4 on the sensor, antibody up to 25 nM; run 2
T1 sequence: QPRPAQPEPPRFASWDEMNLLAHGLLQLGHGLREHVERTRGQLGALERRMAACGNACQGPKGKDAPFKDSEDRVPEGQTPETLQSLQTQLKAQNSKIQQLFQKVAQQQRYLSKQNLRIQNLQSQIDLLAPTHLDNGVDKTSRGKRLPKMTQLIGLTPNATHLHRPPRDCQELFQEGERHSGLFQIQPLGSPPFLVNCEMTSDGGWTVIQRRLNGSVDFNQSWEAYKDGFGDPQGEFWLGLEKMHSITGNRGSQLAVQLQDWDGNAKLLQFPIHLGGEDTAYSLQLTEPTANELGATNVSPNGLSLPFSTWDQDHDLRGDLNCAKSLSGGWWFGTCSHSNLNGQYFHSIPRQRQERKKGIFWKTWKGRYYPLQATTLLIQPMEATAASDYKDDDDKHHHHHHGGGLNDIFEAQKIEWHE

[2] = biological target: T1, Mouse ANGPTL4(26-410)-FLAG-His6-Avi; assay: Octet (ForteBio) kinetics, biotinylated antigen on streptavidin sensor, IgG in solution; Octet kinetics, mouse ANGPTL4 on the sensor, antibody up to 25 nM; run 1

koff [1]: 0.0018 s⁻¹
kon [1]: 430000 M⁻¹ s⁻¹
Kd [2]: 8.25 nM
koff [2]: 0.0029 s⁻¹
kon [2]: 360000 M⁻¹ s⁻¹
B1: NEG276-LALA (antibody, human IgG1, kappa, L234A L235A)
heavy: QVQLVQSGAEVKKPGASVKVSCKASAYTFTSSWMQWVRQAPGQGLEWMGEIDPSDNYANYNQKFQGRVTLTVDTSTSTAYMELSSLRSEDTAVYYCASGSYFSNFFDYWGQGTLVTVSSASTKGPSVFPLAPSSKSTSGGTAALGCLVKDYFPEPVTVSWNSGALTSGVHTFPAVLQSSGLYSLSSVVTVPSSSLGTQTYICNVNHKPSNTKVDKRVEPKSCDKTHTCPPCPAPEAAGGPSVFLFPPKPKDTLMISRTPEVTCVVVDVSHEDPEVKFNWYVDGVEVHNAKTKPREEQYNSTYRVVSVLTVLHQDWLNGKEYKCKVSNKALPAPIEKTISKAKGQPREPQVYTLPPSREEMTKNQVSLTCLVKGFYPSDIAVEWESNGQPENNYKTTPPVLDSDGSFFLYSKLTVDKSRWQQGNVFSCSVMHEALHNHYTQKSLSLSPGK
light: EIVMTQSPATLSVSPGERATLSCKASQDIGSNLNWLQQKPGQAPRRLIYAVSNRGPGIPARFSGSRSGSEYTLTISSLQSEDFAVYYCLQYASSPWTFGQGTKVEIKRTVAAPSVFIFPPSDEQLKSGTASVVCLLNNFYPREAKVQWKVDNALQSGNSQESVTEQDSKDSTYSLSSTLTLSKADYEKHKVYACEVTHQGLSSPVTKSFNRGEC
